# In US20250002557A1:
# T1: PDGF-CC, Q9NRA1
# T1 chain: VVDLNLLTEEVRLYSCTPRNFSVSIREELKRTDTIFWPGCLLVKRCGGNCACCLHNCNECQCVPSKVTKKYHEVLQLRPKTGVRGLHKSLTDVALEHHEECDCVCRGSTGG
# Target: T1, PDGF-CC, Q9NRA1
# Assay: SPR, PDGF coupled to CM5 chip, VEGFR2-Fc in flow
# Conditions: remark: other sources report otherwise
binder,measurement,value
"VEGFR2-Fc (Met1-Glu764), P35968 20-764 (Fc fusion, not shown: a dimerising Fc or GST) ASVGLPSVSLDLPRLSIQKDILTIKANTTLQITCRGQRDLDWLWPNNQSGSEQRVEVTECSDGLFCKTLTIPKVIGNDTGAYKCFYRETDLASVIYVYVQDYRSPFIASVSDQHGVVYITENKNKTVVIPCLGSISNLNVSLCARYPEKRFVPDGNRISWDSKKGFTIPSYMISYAGMVFCEAKINDESYQSIMYIVVVVGYRIYDVVLSPSHGIELSVGEKLVLNCTARTELNVGIDFNWEYPSSKHQHKKLVNRDLKTQSGSEMKKFLSTLTIDGVTRSDQGLYTCAASSGLMTKKNSTFVRVHEKPFVAFGSGMESLVEATVGERVRIPAKYLGYPPPEIKWYKNGIPLESNHTIKAGHVLTIMEVSERDTGNYTVILTNPISKEKQSHVVSLVVYVPPQIGEKSLISPVDSYQYGTTQTLTCTVYAIPPPHHIHWYWQLEEECANEPSQAVSVTNPYPCEEWRSVEDFQGGNKIEVNKNQFALIEGKNKTVSTLVIQAANVSALYKCEAVNKVGRGERVISFHVTRGPEITLQPDMQPTEQESVSLWCTADRSTFENLTWYKLGPQPLPIHVGELPTPVCKNLDTLWKLNATMFSNSTNDILIMELKNASLQDQGDYVCLAQDRKTKKRHCVVRQLTVLERVAPTITGNLENQTTSIGESIEVSCTASGNPPPQIMWFKDNETLVEDSGIVLKDGNRNLTIRRVRKEDEGLYTCQACSVLGCAKVEAFFIIEGAQEKTNLE",Kd,73.6 nM
